pIC50: −log10 of the molar value.
Columns and labels:
α2β1 integrin [1] = molecular target: T1, α2β1 integrin (Homo sapiens, UniProt P05556+P17301); test: adhesion of α2K562 cells to collagen I; type: cell-based; parameters: expressed in transfected cells; host or cells: α2K562 cells
Experimental: (§1) Adhesive ligands for the selected integrins consisted of collagen IV (0.2 μg/well), collagen I, fibronectin, or vascular cell adhesion molecule-1 (VCAM-1). Adhesive ligands in 0.02 M acetic acid were immobilized overnight at 4° C. on a 96-well plate. Plates were then blocked with 1% (w/v) BSA (bovine serum albumin) in Hank's Balanced Salt Solution (HBSS) containing 3 mM Mg^2+ at room temperature for 1-2 hours to prevent cells from non-specifically binding to the plates. α1K562, α2K562, K562, A5, and Jurkat cells expressing the α1β1, α2β1, α5β1, αIIbβ3, and α4β1 integrins respectively were labeled by incubation with 12.5 μM 5-chloromethylfluorescein diacetate (CMFDA) in HBSS for 15 minutes at 37° C. CMFDA labeled cells were then pelleted, washed and resuspended in HBSS buffer containing 3 mM Mg^2+ and 1% (w/v) BSA. […] Plates were then incubated at 37° C. for 30 minutes as indicated in Table 5 and washed three times with HBSS containing 3 mM Mg^2+ and 1% (w/v) BSA to remove unbound cells. Bound cells were lysed using 0.5% (v/v) Triton X-100 in H2O. Fluorescent CMFDA released by lysis of adherent cells in a given well was read using a Cytofluor 2350 fluorescence plate reader.
(§2) The effect of obtustatin, viperisrastatin, echistatin, and eristostatin on the binding of selected integrins to their adhesive ligands was evaluated using the cell adhesion assay described in Example 6. The integrin-expressing cells, integrins and corresponding adhesive ligands, and the results of the cell adhesion assay are shown in Table 6.

α1β1 integrin [2] = molecular target: T2, α1β1 integrin (Homo sapiens, UniProt P05556+P56199); test: adhesion of α1K562 cells to immobilized collagen IV; type: cell-based; conditions: α1K562 cells, α1β1, collagen IV
T2 construct: expressed in transfected cells; host or cells: α1K562 cells
Experimental: Collagen IV (0.2 μg/well) in 0.02 M acetic acid was immobilized by incubation overnight at 4° C. on a 96-well plate. Plates were then blocked with 1% (w/v) BSA (bovine serum albumin) in Hank's Balanced Salt Solution (HBSS) containing 3 mM Mg^2+ at room temperature for 1-2 hours to prevent cells from non-specifically binding to the plates. α1K562 cells were labeled by incubation with 12.5 μM 5-chloromethylfluorescein diacetete (CMFDA) in HBSS for 15 minutes at 37° C. CMFDA labeled α1K562 cells were then pelleted, washed and resuspended in HBSS buffer containing 3 mM Mg^2+ and 1% BSA. […] The plates were washed three times with HBSS containing 3 mM Mg^2+ and 1% (w/v) BSA to remove unbound cells. Bound cells were lysed using 0.5% (v/v) Triton X-100 in H2O. Fluorescent CMFDA released by lysis of adherent cells in a given well was read using a Cytofluor 2350 fluorescence plate reader.
as §1, §2

α2β1 integrin [3] = molecular target: T1, α2β1 integrin; test: adhesion of AJH10 blocked MV3 cells to immobilized collagen IV; type: cell-based; parameters: endogenous in cells; host or cells: MV3 human melanoma cells; conditions: adhesion via α2β1
Experimental: The α1β1 integrin specific inhibitory effect of obtustatin was confirmed using human melanoma MV3 cells. MV3 cells express both the α1β1 and α2β1 integrins. MV3 cells adhere strongly to collagen IV through α1β1 and α2β1 integrin-mediated interactions.
Collagen IV (0.2 μg/well) in 0.02 M acetic acid was immobilized overnight at 4° C. on a 96-well plate. Plates were then blocked with 1% (w/v) BSA (bovine serum albumin) in Hank's Balanced Salt Solution (HBSS) containing 3 mM Mg^2+ at room temperature for 1-2 hours to prevent cells from non-specifically binding to the plates. α1K562 cells were labeled by incubation with 12.5 μM 5-chloromethylfluorescein diacetete (CMFDA) in HBSS for 15 minutes at 37° C. CMFDA labeled MV3 cells were then pelleted, washed and resuspended in HBSS buffer containing 3mM Mg^2+ and 1% (w/v) BSA. 1×10^5 cells were then added to each well in the presence (10 μg/ml) or absence of the α1 integrin subunit specific AJH10 mAb and α2 integrin subunit specific P1E6 mAb as indicated in FIG. 5. Obtustatin was added at the concentrations indicated in FIG. 5 simultaneously with the mAbs. The plates were then incubated at 37° C. for 30 minutes and washed three times with HBSS containing 3 mM Mg^2+ and 1% (w/v) BSA to remove unbound cells. […] Fluorescent CMFDA released by lysis of adherent cells in a given well was read using a Cytofluor 2350 fluorescence plate reader.

HMVECs = test: endothelial cell tube formation assay on Matrigel; type: cell-based, human; conditions: 60 μM, 24 hours
Experimental: An endothelial cell tube formation assay was performed to assess the anti-angiogenic effect of obtustatin in vitro as follows. Twenty-four well plates were coated with a 1:2 dilution of Matrigel™ in EBM-2 medium, which was polymerized by incubation for 1 hour at 37° C. HMVECs (1.2×10^5 cells per well) were added onto the polymerized Matrigel™ (BD Biosciences, Lexington, Ky.) in EBM-2 medium, in the absence or presence of 60 μM obtustatin. The plates were incubated for 24 hours at 37° C., and analyzed for the extent of tube formation by observation with an inverted microscope, using a magnification of 10× ocular and 10× objective.

α1β1 integrin [4] = molecular target: T2, α1β1 integrin; test: adhesion of α1K562 cells to collagen I; type: cell-based; conditions: α1β1, Coll I
Experimental: as §1, §2

T2 sequence (P56199 29-1179): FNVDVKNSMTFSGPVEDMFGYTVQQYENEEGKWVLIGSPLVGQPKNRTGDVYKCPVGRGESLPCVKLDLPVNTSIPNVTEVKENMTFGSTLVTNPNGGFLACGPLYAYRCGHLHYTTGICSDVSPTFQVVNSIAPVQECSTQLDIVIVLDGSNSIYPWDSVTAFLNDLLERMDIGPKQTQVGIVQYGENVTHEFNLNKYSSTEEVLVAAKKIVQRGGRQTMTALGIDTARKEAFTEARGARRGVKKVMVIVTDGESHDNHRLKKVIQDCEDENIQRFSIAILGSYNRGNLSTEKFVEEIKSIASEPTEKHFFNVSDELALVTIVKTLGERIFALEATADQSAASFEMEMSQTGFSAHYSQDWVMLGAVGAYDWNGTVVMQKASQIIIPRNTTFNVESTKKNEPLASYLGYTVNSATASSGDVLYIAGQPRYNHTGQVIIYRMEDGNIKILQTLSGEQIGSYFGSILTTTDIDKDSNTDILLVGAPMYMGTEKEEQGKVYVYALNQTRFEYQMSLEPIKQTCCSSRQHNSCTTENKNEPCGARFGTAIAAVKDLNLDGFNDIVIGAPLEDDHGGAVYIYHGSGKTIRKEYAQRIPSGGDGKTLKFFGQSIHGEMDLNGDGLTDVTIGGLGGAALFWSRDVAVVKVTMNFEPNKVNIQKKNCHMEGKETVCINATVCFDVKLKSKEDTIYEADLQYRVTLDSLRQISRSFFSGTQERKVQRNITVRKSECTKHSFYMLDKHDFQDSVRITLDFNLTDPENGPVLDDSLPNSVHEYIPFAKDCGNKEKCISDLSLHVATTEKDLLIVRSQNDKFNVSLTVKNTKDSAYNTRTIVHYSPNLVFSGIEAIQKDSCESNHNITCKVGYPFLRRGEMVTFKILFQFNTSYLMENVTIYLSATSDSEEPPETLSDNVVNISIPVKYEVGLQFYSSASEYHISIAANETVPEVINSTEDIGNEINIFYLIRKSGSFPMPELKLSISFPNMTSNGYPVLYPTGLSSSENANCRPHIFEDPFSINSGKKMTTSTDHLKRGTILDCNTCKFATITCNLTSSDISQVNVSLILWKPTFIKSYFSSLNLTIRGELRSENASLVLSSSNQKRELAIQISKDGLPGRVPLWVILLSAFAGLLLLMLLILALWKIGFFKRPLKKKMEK
T2 sequence (P05556 21-798): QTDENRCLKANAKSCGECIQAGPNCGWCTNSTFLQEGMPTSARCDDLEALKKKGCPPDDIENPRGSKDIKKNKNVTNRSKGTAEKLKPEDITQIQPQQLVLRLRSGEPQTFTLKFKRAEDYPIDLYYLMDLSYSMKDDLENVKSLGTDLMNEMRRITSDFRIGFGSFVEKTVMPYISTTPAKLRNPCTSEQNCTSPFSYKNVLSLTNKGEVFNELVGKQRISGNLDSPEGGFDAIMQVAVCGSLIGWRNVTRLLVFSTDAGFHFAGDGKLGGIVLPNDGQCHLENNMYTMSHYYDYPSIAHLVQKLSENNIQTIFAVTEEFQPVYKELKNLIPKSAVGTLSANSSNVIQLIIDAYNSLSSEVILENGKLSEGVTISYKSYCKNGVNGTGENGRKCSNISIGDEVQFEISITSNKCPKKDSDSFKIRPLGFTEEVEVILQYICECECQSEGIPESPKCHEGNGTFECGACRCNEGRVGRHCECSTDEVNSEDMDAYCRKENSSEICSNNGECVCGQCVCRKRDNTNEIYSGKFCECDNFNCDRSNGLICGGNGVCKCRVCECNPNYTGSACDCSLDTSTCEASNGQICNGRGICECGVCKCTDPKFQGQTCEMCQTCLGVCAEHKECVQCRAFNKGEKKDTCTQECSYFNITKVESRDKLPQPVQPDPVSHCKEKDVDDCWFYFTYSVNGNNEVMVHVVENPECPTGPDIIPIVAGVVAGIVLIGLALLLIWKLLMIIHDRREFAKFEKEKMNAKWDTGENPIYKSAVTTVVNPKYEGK

Substance: Obtustatin (CTTGPCCRQCKLKPAGTTCWKTSLTSHYCTGKSCDCPLYPG)
- pIC50 (α2β1 integrin [1]): < 5.00
- pIC50 (α1β1 integrin [2]): 8.70
- inhibition of adhesion of MV3 cells to collagen IV (α2β1 integrin [3]): comparatively insensitive
- formation of HMVEC tubes on Matrigel (HMVECs): completely abolished
- pIC50 (α1β1 integrin [4]): 9.30
